Results taken from patent US20240190986A1.
Residue numbers refer to the chain shown, from its start.

B1: M004 (VHH)
VHH: EVQLVESGGGLVQAGGSLRLSCAASESISSIAYMGWYRRISEKERNLVATISSTGSTYYADSVKGRFTISRDNAKNTMYLQMNRLKPEDTAIYYCAASNKAYNDYDPDWGQGTQVTVSS
B2: M210 (VHH)
VHH: QVQLVESGGGLVQPGGSLRLSCAASGITLDNYAIAWFRQAPGKKREGVSCISSNGNTYYQPSVKGRFTIARDNAKNTVYLHMNNLNPEDTAVYYCQVGQFSSSTTPVQAMSVMSLYADWGQGTQVTVSS
B3: M224 (VHH)
VHH: QVQLVESGGGLVQPGGSLRLSCAASGFTFHYYAIGWFRQAPGKEREGVSCISSSGDSTWFSDSVKGRFTVSRDNAKNIVHLQMNNLKPEDTAVYYCAGTTRSGYVCYDAEPYDSWGQGTQVTVSS
B4: M005 (VHH)
VHH: EVQLVESGGGWVQSGGSLRLACAASGSSFGLNVVGWYRQAPDKQRELVASIGNGGRTTDYADSVKGRFTISSDNAKNTVFLQMNDLKPEDTAVYYCHLRASVTKGYWGQGTQVTVSS
B5: M126 (VHH)
VHH: B4 VHH with S27D, Q39L, V93M, A100V, K104E
B6: M137 (VHH)
VHH: QVQLVESGGGLVQAGGSLSLSCAASGSLSSINAMGWYRQLPEMRQLVATMGSDGKTYYADSVKGRFTISRDYAKYTVSLQMNNLRPEDTAIYYCAADRFGAPIHDVDYWGKGTLVTVSV
B7: M047 (VHH)
VHH: QVQLVETGGGSVQAGGSLRLSCAASGSIASIDAMGWYRQVPGKEWERELVATISSSNSDNKYYKDSVKGRFTISTNIAKNTWYLQMNNLKPEDTAMYYCAAEDYDTKDRFWGQGTQVTVSS
B8: M012 (VHH)
VHH: QVQLVESGGDLVQTGGSLRLSCVVSGSTFAINAMGWYRQAPGKERELVAAISSGGDSTHYADDVKGRFTISRDNAENTMYLQMKSLKPEDTAVYVCNARGCRDFHNPQALCVLRDYWGQGTQVTVSS
B9: M344 (VHH)
VHH: QVQLVESGGGLVQSGGSLRLSCVASGSAFSFDAMGWYRQFSATRRERQLVVATSRDGRTYYADSVKGRFTATRDNSKNSLYLEMNSLKPEDTAIYYCAAGDDPKNYSWGQGTQVTVSS
B10: M129 (VHH)
VHH: QVQLVESGGGSAQAGGSLILSCVASANLFTIDALGWYRQAPGPKRELVAAISSGGNKYYADAVKGRFTISRDTLTKTMWLQMNNLKPEDTAMYYCAAEDYGLGQRSWGMGTQVTVSS
B11: M050 (VHH)
VHH: EVQLQESGGGLVQAGGSLRLSCAASGAVSSINAMGWYRQTPEKVRKLVATMGSGGNTYYADSVKGRFTISRDYAKNTVALQMNNLIPEDTAVYYCAADKFGADIHEVDYWGKGTLVTVSS
B12: M197 (VHH)
VHH: EVQLVESGGGLVQAGGSLRLSCAASGSHFGLNVVGWYRQAPGKQRELVASIGNSGRTTDYADSVKGRFTISKDNAQNTIYLQMNNLKPEDTAMYRCHLRVSVERGYWGQGTQVTVSS
B13: M132 (VHH)
VHH: QVQLVESGGGLVQAGGSLSLSCVASGDAFSFDAMGWYRQFSGKVNERQLVVATSRDGRTAYGERVKGRFTASRDNSKNTLSLVMNNLQVEDTAIYYCAAGDDPKDYYWGQGTQVTVSS
B14: M119 (VHH)
VHH: EVQLVESGGGLVQPGGSLRLSCVASGSDLSFDAMGWYRQFSATVRERQLVVATSRDGRIYYGDSVKGRFTASRDNLKNSVDLEMNNLKPEDTAIYYCAAGDDPKNYDWGPGTQVTVSS
B15: M032 (VHH)
VHH: EVQLVESGGGSVQAGGSLKISCAASGSVIDIGAMGWYRHITEKERKLVATINAGGNTYYADSVKGRFTISRDNAKYTVYLQMNSLKPEDTAMYYCAAEDINYTGTEAYYWGQGTQVTVSS
B16: M156 (VHH)
VHH: QVQLVESGGGLVQAGGSLRLSCAVSGISFEYYAIGWFRQAPGKEREAVSCTTSGTTSGGGVTDYADSLKGRFTISRDVAKNTVYLQMNNLTPEDTAVYYCAADIHCRGYVLFVPSDFGNWGQGTQVTVSS
B17: M143 (VHH)
VHH: EVQLVESGGGLVQAGGSLRLSCSASEKTFSIKYMGYYRQGPGIERKLVATIDTDGKTWYADSVKGRFTISRENGENEIGLEMNRLKPEDTAMYYCAGETGTYPKPEYWGQGTQVTVSS
B18: M044 (VHH)
VHH: QVQVVESGGGFVQAGGSLRLSCAASTPIISIAYMGWYRQISEKERQLVATINSGGKTYYADSVKGRFTISRDNAKNTLYLQMNMLKPEDTGMYYCAASNKDYNDYDPDWGQGTQVTVSS
B19: YP218-IgG4 (antibody, from another filing, V domains shown)
VH: QQQLEESGGGLVKPEGSLTLTCKASGFDLGFYFYACWVRQAPGKGLEWIACIYTAGSGSTYYASWAKGRFTISKASSTTVTLQMTSLAAADTATYFCARSTANTRSTYYLNLWGPGTLVTVSS
VL: DVVMTQTPASVSEPVGGTVTIKCQASQRISSYLSWYQQKPGQRPKLLIFGASTLASGVPSRFKGSGSGTEYTLTISDLECADAATYYCQSYAYFDSNNWHAFGGGTEVVVRT
B20: M118 (VHH)
VHH: EVQLVESGGGLVQAGGSLTLSCAASEHTFTIDAMGYYRQIPGRRNERQLVAAAGRTGTTYYNDAVKDRFTIYRDTSKETIILQMNNLRPEDTTMYYCAVERYSDQSRFFGPGTQVTVSS
B21: M191 (VHH)
VHH: QVQLVESGGGLVQAGGSLRLSCAASASMGSISNMGWYRQAPGKERGNERNLVATIGSDGRTYYADSVKGRFTISRDNVKNTMILQMNFLKPEDTAMYYCAVEDRQRPGTENYYWGQGTQVTVSS
B22: M010 (VHH)
VHH: QVQLVESGGGLVQAGGSLRLSCAASGSVSSINAMGWYRQGTGEVRKLVATMGSGGNTYYADSVKGRFFITRDYSKNTVSLQMNNLTPEDSATYYCAADRFGASIHEVDYWGKGTLVTVSS
B23: M182 (VHH)
VHH: QVQLVESGGGSVQAGGSLTLSCAASGAVSSINAMGWYRQTPEKVRQLVATMGSGGNTYYAASVKGRFTISRDYAKNTVALQMNHLLPEDTAVYYCAADRFGADIREVDYWGKGTQVTVSS
B24: M2339-z1-1 (antibody, part only; not given: constant region, IgG4, part only)
heavy, part: QLQLGASGGGLVQPGGSLRLSCALSGFTLRELDEFAIGWFRQAPGKEREGVSCISGTGGITHYADSVKGRFTISRDIAKNTVYLQMNSLNSEDTAVYYCAADERCTDRLIRPPTYWGQGTQVTVSS
B25: M2339 (VHH)
VHH: B24 heavy, part with N80T
B26: M169 (VHH)
VHH: EVQLVESGGGTVQPGESLRLSCEASGAVSTINAMGWYRQTPEMRKLVATMGSGGNTYYADSVKGRFTISRDFAGNTVDLQMNDLKPEDTGVYFCAADKFGADIKEVAYWGKGTLVTVSS
B27: M001 (VHH)
VHH: EVQLVESGGGLVQAGGSLRLSCAASGSIFNINAMGWYRQAPGKEWERELVATISSSNSDNTYYKDSVKGRFTISTNTAKNTWYLQMNSLKPEDTAMYYCAAENYDRKDRYWGQGTQVTVSS
B28: M003 (VHH)
VHH: B27 VHH with E1Q, A23T, S27N, N30S, A40P, S56T, D65E, Y104F, G112A

What was measured:
[1] = target: Negative control (amino acid sequence shown in SEQ ID NO: 2 in CN106046152A); assay: ELISA, negative control well, TG1 supernatant
[2] = target: MSLN·His protein (human) (UniProt Q13421); assay: SPR (Biacore), antibody captured on protein A, MSLN·His as analyte
Sequence of MSLN·His protein (human) (Q13421 other isoform, or with tags, fused parts or gaps limits assumed): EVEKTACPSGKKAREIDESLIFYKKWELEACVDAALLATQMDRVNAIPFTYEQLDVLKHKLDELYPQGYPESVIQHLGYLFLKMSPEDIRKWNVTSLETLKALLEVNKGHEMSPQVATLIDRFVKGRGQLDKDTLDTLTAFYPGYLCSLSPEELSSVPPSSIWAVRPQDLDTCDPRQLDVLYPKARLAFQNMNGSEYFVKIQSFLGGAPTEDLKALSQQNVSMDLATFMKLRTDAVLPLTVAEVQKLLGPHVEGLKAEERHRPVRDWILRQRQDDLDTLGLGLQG

[3] = target: MSLN on SKOV3 and Aspc-1 tumor cells (UniProt Q13421); assay: flow cytometry on Aspc-1 tumor cells, anti-human IgG PE secondary, fitted curve
Sequence of MSLN on SKOV3 and Aspc-1 tumor cells (Q13421 other isoform, or with tags, fused parts or gaps limits assumed): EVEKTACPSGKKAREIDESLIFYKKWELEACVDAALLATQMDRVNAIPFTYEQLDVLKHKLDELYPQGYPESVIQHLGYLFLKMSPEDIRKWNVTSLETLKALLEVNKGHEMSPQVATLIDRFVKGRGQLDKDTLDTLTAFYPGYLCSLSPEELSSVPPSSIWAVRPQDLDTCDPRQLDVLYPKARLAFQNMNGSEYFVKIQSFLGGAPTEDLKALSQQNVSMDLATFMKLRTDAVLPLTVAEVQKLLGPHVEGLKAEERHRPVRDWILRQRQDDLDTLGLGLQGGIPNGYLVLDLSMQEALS

[4] = target: MSLN on SKOV3 and Aspc-1 tumor cells (UniProt Q13421); assay: flow cytometry on SKOV3 tumor cells, anti-human IgG PE secondary, fitted curve
[5] = target: segment III of MSLN expressed on HEK293T cells (UniProt Q13421); assay: flow cytometry on HEK293T cells expressing MSLN segment III, anti-human IgG PE secondary, fitted curve
Sequence of segment III of MSLN expressed on HEK293T cells (Q13421 495-606 limits assumed): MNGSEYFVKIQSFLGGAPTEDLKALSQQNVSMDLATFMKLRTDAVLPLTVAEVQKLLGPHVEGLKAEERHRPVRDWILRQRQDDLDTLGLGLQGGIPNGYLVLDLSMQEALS

| Binder | ELISA (OD450) [1] [OD450] | other results |
| --- | --- | --- |
| B1 | 0.0085 | – |
| B2 | 0.0071 | – |
| B3 | 0.0074 | – |
| B4 | 0.0072 | – |
| B5 | 0.0068 | – |
| B6 | 0.0087 | – |
| B7 | 0.018 | – |
| B8 | 0.0075 | – |
| B9 | 0.0082 | – |
| B10 | 0.007 | – |
| B11 | 0.0099 | – |
| B12 | 0.0074 | – |
| B13 | 0.007 | – |
| B14 | 0.0071 | – |
| B15 | 0.0076 | – |
| B16 | 0.0074 | – |
| B17 | 0.0085 | – |
| B18 | 0.0083 | – |
| B19 | – | Kd [2]: 3.1 nM; koff [2]: 0.000123 s⁻¹; kon [2]: 40200 M⁻¹ s⁻¹; EC50 [3]: 4.24 nM; EC50 [4]: 6.96 nM; EC50 [5]: 2.44 nM |
| B20 | 0.0074 | – |
| B21 | 0.0074 | – |
| B22 | 0.007 | – |
| B23 | 0.0075 | – |
| B24 | – | Kd [2]: 2270 nM; koff [2]: 0.000739 s⁻¹; kon [2]: 326 M⁻¹ s⁻¹ |
| B25 | 0.0479 | – |
| B26 | 0.007 | – |
| B27 | 0.0184 | – |
| B28 | 0.0104 | – |
